Square brackets hold non-standard residues; d marks the D form. Ends that are not written are not given here. Aib = CC(C)(N)C(=O)O
Assays:
[1] = target: human glucagon-like peptide-1 receptor (human, UniProt P43220); assay: cell-based or functional assay
[2] = target: T1, human glucose-dependent insulinotropic peptide receptor (human, UniProt P48546); assay: cell-based or functional assay
T1 sequence: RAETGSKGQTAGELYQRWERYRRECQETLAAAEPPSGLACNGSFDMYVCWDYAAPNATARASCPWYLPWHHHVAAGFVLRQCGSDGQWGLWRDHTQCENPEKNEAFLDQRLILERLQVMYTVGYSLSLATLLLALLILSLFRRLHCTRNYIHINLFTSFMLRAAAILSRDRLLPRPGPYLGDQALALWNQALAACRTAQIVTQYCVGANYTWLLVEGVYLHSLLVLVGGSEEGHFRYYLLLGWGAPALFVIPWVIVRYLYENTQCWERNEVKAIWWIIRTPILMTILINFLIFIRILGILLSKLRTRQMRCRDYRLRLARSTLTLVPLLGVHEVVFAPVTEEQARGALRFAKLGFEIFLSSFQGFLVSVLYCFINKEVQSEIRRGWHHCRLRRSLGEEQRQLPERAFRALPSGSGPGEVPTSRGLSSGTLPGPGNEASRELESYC

B1: Compound No. 12 (peptide)
peptide: Y[Aib]EGTFTSDYSIYLE[Aib]EAAKEFVNWLLAGGPSSGAPPPSK-NH2
modifications: N-terminus assumed
SMILES: CC[C@H](C)[C@H](NC(=O)[C@H](CO)NC(=O)[C@H](Cc1ccc(O)cc1)NC(=O)[C@H](CC(=O)O)NC(=O)[C@H](CO)NC(=O)[C@@H](NC(=O)[C@H](Cc1ccccc1)NC(=O)[C@@H](NC(=O)CNC(=O)[C@H](CCC(=O)O)NC(=O)C(C)(C)NC(=O)[C@@H](N)Cc1ccc(O)cc1)[C@@H](C)O)[C@@H](C)O)C(=O)N[C@@H](Cc1ccc(O)cc1)C(=O)N[C@@H](CC(C)C)C(=O)N[C@@H](CCC(=O)O)C(=O)NC(C)(C)C(=O)N[C@@H](CCC(=O)O)C(=O)N[C@@H](C)C(=O)N[C@@H](C)C(=O)N[C@@H](CCCCN)C(=O)N[C@@H](CCC(=O)O)C(=O)N[C@@H](Cc1ccccc1)C(=O)N[C@H](C(=O)N[C@@H](CC(N)=O)C(=O)N[C@@H](Cc1c[nH]c2ccccc12)C(=O)N[C@@H](CC(C)C)C(=O)N[C@@H](CC(C)C)C(=O)N[C@@H](C)C(=O)NCC(=O)NCC(=O)N1CCC[C@H]1C(=O)N[C@@H](CO)C(=O)N[C@@H](CO)C(=O)NCC(=O)N[C@@H](C)C(=O)N1CCC[C@H]1C(=O)N1CCC[C@H]1C(=O)N1CCC[C@H]1C(=O)N[C@@H](CO)C(=O)N[C@@H](CCCCN)C(N)=O)C(C)C
Activity for human GLP-1R (EC50 nM), cAMP HTRF [1]: 0.013 nM
Activity for human GIPR (EC50 nM), cAMP HTRF [2]: 0.081 nM

B2: Compound No. 14 (peptide)
peptide: Y[Aib]EGTFTSDYSIYLEKIAAQEFVNWLLAGGPSSGAPPPSK-NH2
modifications: N-terminus assumed
SMILES: CC[C@H](C)[C@H](NC(=O)[C@H](CCCCN)NC(=O)[C@H](CCC(=O)O)NC(=O)[C@H](CC(C)C)NC(=O)[C@H](Cc1ccc(O)cc1)NC(=O)[C@@H](NC(=O)[C@H](CO)NC(=O)[C@H](Cc1ccc(O)cc1)NC(=O)[C@H](CC(=O)O)NC(=O)[C@H](CO)NC(=O)[C@@H](NC(=O)[C@H](Cc1ccccc1)NC(=O)[C@@H](NC(=O)CNC(=O)[C@H](CCC(=O)O)NC(=O)C(C)(C)NC(=O)[C@@H](N)Cc1ccc(O)cc1)[C@@H](C)O)[C@@H](C)O)[C@@H](C)CC)C(=O)N[C@@H](C)C(=O)N[C@@H](C)C(=O)N[C@@H](CCC(N)=O)C(=O)N[C@@H](CCC(=O)O)C(=O)N[C@@H](Cc1ccccc1)C(=O)N[C@H](C(=O)N[C@@H](CC(N)=O)C(=O)N[C@@H](Cc1c[nH]c2ccccc12)C(=O)N[C@@H](CC(C)C)C(=O)N[C@@H](CC(C)C)C(=O)N[C@@H](C)C(=O)NCC(=O)NCC(=O)N1CCC[C@H]1C(=O)N[C@@H](CO)C(=O)N[C@@H](CO)C(=O)NCC(=O)N[C@@H](C)C(=O)N1CCC[C@H]1C(=O)N1CCC[C@H]1C(=O)N1CCC[C@H]1C(=O)N[C@@H](CO)C(=O)N[C@@H](CCCCN)C(N)=O)C(C)C
Activity for human GLP-1R (EC50 nM), cAMP HTRF [1]: 0.008 nM
Activity for human GIPR (EC50 nM), cAMP HTRF [2]: 0.006 nM

B3: Compound No. 15 (peptide)
peptide: Y[Aib]EGTFTSDYSIYLEKIAQKEFVNWLLAGGPSSGAPPPSK-NH2
modifications: N-terminus assumed
SMILES: CC[C@H](C)[C@H](NC(=O)[C@H](CCCCN)NC(=O)[C@H](CCC(=O)O)NC(=O)[C@H](CC(C)C)NC(=O)[C@H](Cc1ccc(O)cc1)NC(=O)[C@@H](NC(=O)[C@H](CO)NC(=O)[C@H](Cc1ccc(O)cc1)NC(=O)[C@H](CC(=O)O)NC(=O)[C@H](CO)NC(=O)[C@@H](NC(=O)[C@H](Cc1ccccc1)NC(=O)[C@@H](NC(=O)CNC(=O)[C@H](CCC(=O)O)NC(=O)C(C)(C)NC(=O)[C@@H](N)Cc1ccc(O)cc1)[C@@H](C)O)[C@@H](C)O)[C@@H](C)CC)C(=O)N[C@@H](C)C(=O)N[C@@H](CCC(N)=O)C(=O)N[C@@H](CCCCN)C(=O)N[C@@H](CCC(=O)O)C(=O)N[C@@H](Cc1ccccc1)C(=O)N[C@H](C(=O)N[C@@H](CC(N)=O)C(=O)N[C@@H](Cc1c[nH]c2ccccc12)C(=O)N[C@@H](CC(C)C)C(=O)N[C@@H](CC(C)C)C(=O)N[C@@H](C)C(=O)NCC(=O)NCC(=O)N1CCC[C@H]1C(=O)N[C@@H](CO)C(=O)N[C@@H](CO)C(=O)NCC(=O)N[C@@H](C)C(=O)N1CCC[C@H]1C(=O)N1CCC[C@H]1C(=O)N1CCC[C@H]1C(=O)N[C@@H](CO)C(=O)N[C@@H](CCCCN)C(N)=O)C(C)C
Activity for human GLP-1R (EC50 nM), cAMP HTRF [1]: 0.015 nM
Activity for human GIPR (EC50 nM), cAMP HTRF [2]: 0.009 nM

B4: Compound No. 13 (peptide)
peptide: Y[Aib]EGTFTSDYSIYLEKIAAKEFVNWLLAGGPSSGAPPPSK-NH2
modifications: N-terminus assumed
SMILES: CC[C@H](C)[C@H](NC(=O)[C@H](CCCCN)NC(=O)[C@H](CCC(=O)O)NC(=O)[C@H](CC(C)C)NC(=O)[C@H](Cc1ccc(O)cc1)NC(=O)[C@@H](NC(=O)[C@H](CO)NC(=O)[C@H](Cc1ccc(O)cc1)NC(=O)[C@H](CC(=O)O)NC(=O)[C@H](CO)NC(=O)[C@@H](NC(=O)[C@H](Cc1ccccc1)NC(=O)[C@@H](NC(=O)CNC(=O)[C@H](CCC(=O)O)NC(=O)C(C)(C)NC(=O)[C@@H](N)Cc1ccc(O)cc1)[C@@H](C)O)[C@@H](C)O)[C@@H](C)CC)C(=O)N[C@@H](C)C(=O)N[C@@H](C)C(=O)N[C@@H](CCCCN)C(=O)N[C@@H](CCC(=O)O)C(=O)N[C@@H](Cc1ccccc1)C(=O)N[C@H](C(=O)N[C@@H](CC(N)=O)C(=O)N[C@@H](Cc1c[nH]c2ccccc12)C(=O)N[C@@H](CC(C)C)C(=O)N[C@@H](CC(C)C)C(=O)N[C@@H](C)C(=O)NCC(=O)NCC(=O)N1CCC[C@H]1C(=O)N[C@@H](CO)C(=O)N[C@@H](CO)C(=O)NCC(=O)N[C@@H](C)C(=O)N1CCC[C@H]1C(=O)N1CCC[C@H]1C(=O)N1CCC[C@H]1C(=O)N[C@@H](CO)C(=O)N[C@@H](CCCCN)C(N)=O)C(C)C
Activity for human GLP-1R (EC50 nM), cAMP HTRF [1]: 0.013 nM
Activity for human GIPR (EC50 nM), cAMP HTRF [2]: 0.017 nM

B5: Compound No. 11 (peptide)
peptide: Y[Aib]EGTFTSDYSIYLEKEAQKEFVNWLLAGGPSSGAPPPSK-NH2
modifications: N-terminus assumed
SMILES: CC[C@H](C)[C@H](NC(=O)[C@H](CO)NC(=O)[C@H](Cc1ccc(O)cc1)NC(=O)[C@H](CC(=O)O)NC(=O)[C@H](CO)NC(=O)[C@@H](NC(=O)[C@H](Cc1ccccc1)NC(=O)[C@@H](NC(=O)CNC(=O)[C@H](CCC(=O)O)NC(=O)C(C)(C)NC(=O)[C@@H](N)Cc1ccc(O)cc1)[C@@H](C)O)[C@@H](C)O)C(=O)N[C@@H](Cc1ccc(O)cc1)C(=O)N[C@@H](CC(C)C)C(=O)N[C@@H](CCC(=O)O)C(=O)N[C@@H](CCCCN)C(=O)N[C@@H](CCC(=O)O)C(=O)N[C@@H](C)C(=O)N[C@@H](CCC(N)=O)C(=O)N[C@@H](CCCCN)C(=O)N[C@@H](CCC(=O)O)C(=O)N[C@@H](Cc1ccccc1)C(=O)N[C@H](C(=O)N[C@@H](CC(N)=O)C(=O)N[C@@H](Cc1c[nH]c2ccccc12)C(=O)N[C@@H](CC(C)C)C(=O)N[C@@H](CC(C)C)C(=O)N[C@@H](C)C(=O)NCC(=O)NCC(=O)N1CCC[C@H]1C(=O)N[C@@H](CO)C(=O)N[C@@H](CO)C(=O)NCC(=O)N[C@@H](C)C(=O)N1CCC[C@H]1C(=O)N1CCC[C@H]1C(=O)N1CCC[C@H]1C(=O)N[C@@H](CO)C(=O)N[C@@H](CCCCN)C(N)=O)C(C)C
Activity for human GLP-1R (EC50 nM), cAMP HTRF [1]: 0.08 nM
Activity for human GIPR (EC50 nM), cAMP HTRF [2]: 0.014 nM
